These results are taken from patent US8703915B2, “Mutant proteins and methods for producing them” (Heptares Therapeutics Limited, priority 2009, dated 2014).

In data set [1] the test system is A2A receptor. In words: Thermostability of A2A receptor in NECA agonist-bound state, solubilised in DDM. The format is physicochemical, human. Conditions: NECA agonist-bound state (400 nM), solubilised in DDM. How it is done:
(§1) In order to stabilise an agonist-bound conformation, a systematic Alanine-scan was performed in order to identify mutations that may stabilise the A2A receptor bound to its full agonist NECA. In this A2A agonist-bound study, L2.46 (L48A) is the most stabilising single mutant. When NECA is bound to the solubilised receptor, removing the L48 side chain (in A2A-L48A) dramatically increases the thermostability of the ligand-receptor complex resulting in an increase of 14° C. over the wild type receptor in the detergent DDM (FIG. 5a). […] We evaluated the signalling property of the A2A receptor by over-expressing the receptor in CHO cells. A2A agonist stimulation triggers the signal transduction through the Gs-trimeric complex and increases the intracellular cAMP level. The increase in intracellular cAMP can be detected by and quantified by using an anti-cAMP Mab antibody competition assay. […] However the signalling efficacy is reduced to 30% (FIG. 6).
A2AR-(2-316) expression was carried out by using the pRG/III-hs-MBP E. coli expression vector and DH5α cells. Cells were grown at 37° C. in 2 L flasks containing 500 mL of 2×TY medium supplemented with Ampicillin (100 μg/mL) and glucose (0.2% w/v). At OD600≈0.7, IPTG and theophylline were added at final concentrations respectively of 0.5 mM and 100 μM, and the temperature was reduced to 20° C. After 22 to 24 hours, cells were harvested in aliquots of 14 mL, centrifuged for 30 min and stored at −20° C. Both 5HT2C and M4 receptors were transiently expressed in HEK293T cells using GeneJuice transfection reagent used according to the manufacturers guidelines.
An aliquot of E. coli cells expressing wild type or mutant A2AR-(2-316) (14 mL) was thawed on ice and cells were resuspended in 500 μL of buffer A (50 mM Tris HCl mM/pH 7.4; 0.4 M NaCl, 250 μg/mL lysozyme (Sigma), 1 mg/mL DNAse I (Sigma), supplemented with complete EDTA-free Protease inhibitor cocktail (Roche)) and incubated 1 hour at 4° C. Samples were then sonicated 1 min at 4° C. using a cup-horn sonicator. […]

The target in data set [2] is T1, A2A receptor (Homo sapiens, UniProt P29274).
T1 construct: A2AR-(2-316) expression was carried out by using the pRG/III-hs-MBP E. coli expression vector; MBP (named only in the vector name); made in house; host or cells: E. coli DH5alpha
In words: Thermostability of A2A receptor in ZM241385 antagonist-bound state, solubilised in DDM. In kind it is physicochemical. The conditions noted are these: ZM antagonist bound state (100 nM). The protocol: as §1
A2AR-(2-316) expression was carried out by using the pRG/III-hs-MBP E. coli expression vector and DH5α cells. Cells were grown at 37° C. in 2 L flasks containing 500 mL of 2×TY medium supplemented with Ampicillin (100 μg/mL) and glucose (0.2% w/v). At OD600≈0.7, IPTG and theophylline were added at final concentrations respectively of 0.5 mM and 100 μM, and the temperature was reduced to 20° C. […]

For data set [3], the system named is A2A receptor. The data set can be described thus: cAMP functional assay (HTRF), NECA stimulation of CHO cells over-expressing A2A receptor. The format is cell-based, human. Conditions: intracellular cAMP, CHO cells. The protocol:
as §1
This assay takes advantage of Homogeneous Time-Resolved Fluorescence (HTRF) using cAMP labeled with the dye d2 in presence of an anti-cAMP Mab labeled with Cryptate. The method is based on a competitive immunoassay between cAMP produced by cells and the cAMP labeled with the dye d2. CHO cells were grown using Glutamax Ham's F12, 10% FBS in 96-well plates, clear bottom and Black wall (Costar). Cells were seeded at a density of 12500 cells per well, grown overnight, washed with PBS and then transfected with 100 ng of pcDNA-3-A2A(2-316) pre-incubated with 0.3 μL of GeneJuice (Novagen) per well. After 48 hours of receptor expression, the medium was removed, the cells were washed in PBS then stimulated by using different NECA concentrations, in the presence of Rolipram (50 μM) and Adenosine deaminase in a total volume of 50 μL for 30 minutes. Dilution was realised in Hamf's F12/cAMP-d2 conjugate according to the manufacturer protocol, without serum. […] The plate was incubated at room temperature for 1 hour and then read using the Pherastar 96-well time-resolved fluorescence plate reader (Ex 340 nm; Em 665/620 nm).

The subject of a further data set is adenosine A2A receptor. The data set can be described thus: Antagonist binding to adenosine A2A NPxxY motif alanine mutants (Table 1). More on the design: species or system human. The protocol:
An alanine scan was carried out in a similar fashion on an adenosine A2A receptor along with the 5HT2C receptor in the presence of the antagonist Mesulergine. Both alanine scans were carried out in order to further stabilize the antagonist conformation. […] The motif in Adenosine A2A is NPFIY (SEQ ID NO: 364) and for the 5HT2C is NPLVY (SEQ ID NO: 363). Therefore mutations in this region of the receptor contain stabilising mutations specific to the agonist conformation and detrimentally effect antagonist binding.
Adenosine A2A receptor was solubilised from transiently transfected mammalian cells about 36 hours post transfection, in 50 mM Tris pH7.4/400 mM NaCl/0.5% DDM and protease inhibitor. Cell lysates were left at 4° C. on a rotator and then cleared by centrifugation at 13,200 rpm for 20 minutes at 4° C. Solubilised receptors were then purified on Ni-NTA beads and eluted with 50 mM histidine. The eluted receptor was used in radioligand binding assay. The Tm was determined by incubating 108 μl of the eluate with Zm241385 radioligand at a final concentration of 100 nM for one hour at 4° C. The six ligand incubations are then incubated at six different temperatures from 20° C. to 50° C., for thirty minutes. Receptor bound and free radioligand were separated using G25 Sephadex spin columns.

B1: A2A-WT: wild type human adenosine A2A receptor, A2AR-(2-316) (protein, UniProt P29274 2-316, looked up, fragment)
chain: PIMGSSVYITVELAIAVLAILGNVLVCWAVWLNSNLQNVTNYFVVSLAAADIAVGVLAIPFAITISTGFCAACHGCLFIACFVLVLTQSSIFSLLAIAIDRYIAIRIPLRYNGLVTGTRAKGIIAICWVLSFAIGLTPMLGWNNCGQPKEGKNHSQGCGEGQVACLFEDVVPMNYMVYFNFFACVLVPLLLMLGVYLRIFLAARRQLKQMESQPLPGERARSTLQKEVHAAKSLAIIVGLFALCWLPLHIINCFTFFCPDCSHAPLWLMYLAIVLSHTNSVVNPFIYAYRIREFRQTFRKIIRSHVLRQQEPFKA
Turning to B1, the Tm is 28.7±0.5 °C in the data set with A2A receptor [1] and 33.0±0.7 °C in the data set with A2A receptor [2]. In the data set on A2A receptor [3], this molecule gave a pEC50 of 7.27±0.19. Further, the “% of Wildtype binding” value with adenosine A2A receptor (antagonist binding) is listed as 100%. In the data set on adenosine A2A receptor (antagonist binding, replicate 1), this molecule displayed a DPM1 of 13513 DPM. In the data set on adenosine A2A receptor (antagonist binding, replicate 2), this molecule gave a DPM2 of 12949 DPM. The “Average - BG” value in the data set on adenosine A2A receptor (average minus background) is listed as 12731. The same molecule yielded an Average in the data set on adenosine A2A receptor (average of DPM1 and DPM2) of 13231.
